According to US20190062453A1 (Hoffmann-La Roche, published 2019):

Molecular target: T1, Human FAP ectodomain + poly-lys-tag + his6-tag (human, UniProt Q12884 27-760)
T1 construct: also called recombinant soluble human FAP; hFAP
Experiment: Affinity human, method not stated

B1: 28H1 (antibody, V domains shown)
VH: EVQLLESGGGLVQPGGSLRLSCAASGFTFSSHAMSWVRQAPGKGLEWVSAIWASGEQYYADSVKGRFTISRDNSKNTLYLQMNSLRAEDTAVYYCAKGWLGNFDYWGQGTLVTVSS
VL: EIVLTQSPGTLSLSPGERATLSCRASQSVSRSYLAWYQQKPGQAPRLLIIGASTRATGIPDRFSGSGSGTDFTLTISRLEPEDFAVYYCQQGQVIPPTFGQGTKVEIK
notes: also called FAP(28H1); 28H1 (IgG)
**Q.** B1 was tested. Which Kd did it give?
**A.** 2.6 nM
